Assays:
[1] = target: GMPCPP-stabilized HyLite 647/biotin-labeled microtubules (bovine) (UniProt Q6B856); experiment: single-molecule TIRF microscopy
[2] = target: T1, His6-EB1-CyPet (human, UniProt Q15691 1-268); experiment: FRET or BRET
T1 sequence: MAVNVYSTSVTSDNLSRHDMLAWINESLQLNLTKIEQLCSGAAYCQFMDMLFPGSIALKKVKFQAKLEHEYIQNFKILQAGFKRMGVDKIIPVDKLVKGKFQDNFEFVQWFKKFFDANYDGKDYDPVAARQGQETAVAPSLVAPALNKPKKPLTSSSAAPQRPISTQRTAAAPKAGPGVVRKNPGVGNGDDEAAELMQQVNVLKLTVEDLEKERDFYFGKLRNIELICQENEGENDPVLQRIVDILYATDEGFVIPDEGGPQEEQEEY

[3] = target: doubly stabilized microtubules (GMPCPP and paclitaxel) (UniProt Q6B856 1-445); experiment: co-sedimentation

B1: GFP-Kif18B (full-length human Kif18B N-terminally tagged with EGFP) (natural protein)
chain: MAVEDSTLQVVVRVRPPTPRELDSQRRPVVQVVDERVLVFNPEEPDGGFPGLKWGGTHDGPKKKGKDLTFVFDRVFGEAATQQDVFQHTTHSVLDSFLQGYNCSVFAYGATGAGKTHTMLGREGDPGIMYLTTVELYRRLEARQQEKHFEVLISYQEVYNEQIHDLLEPKGPLAIREDPDKGVVVQGLSFHQPASAEQLLEILTRGNRNRTQHPTDANATSSRSHAIFQIFVKQQDRVPGLTQAVQVAKMSLIDLAGSERASSTHAKGERLREGANINRSLLALINVLNALADAKGRKTHVPYRDSKLTRLLKDSLGGNCRTVMIAAISPSSLTYEDTYNTLKYADRAKEIRLSLKSNVTSLDCHISQYATICQQLQAEVAALRKKLQVYEGGGQPPPQDLPGSPKSGPPPEHLPSSPLPPHPPSQPCTPELPAGPRALQEESLGMEAQVERAMEGNSSDQEQSPEDEDEGPAEEVPTQMPEQNPTHALPESPRLTLQPKPVVGHFSARELDGDRSKQLALKVLCVAQRQYSLLQAANLLTPDMITEFETLQQLVQEEKIEPGAEALRTSGLARGAPLAQELCSESIPVPSPLCPEPPGYTGPVTRTMARRLSGPLHTLGIPPGPNCTPAQGSRWPMEKKRRRPSALEADSPMAPKRGTKRQRQSFLPCLRRGSLPDTQPSQGPSTPKGERASSPCHSPRVCPATVIKSRVPLGPSAMQNCSTPLALPTRDLNATFDLSEEPPSKPSFHECIGWDKIPQELSRLDQPFIPRAPVPLFTMKGPKPTSSLPGTSACKKKRVASSSVSHGRSRIARLPSSTLKRPAGPLVLPGDWH
[1]
  dwell time at MT plus ends: 5.56 s
  dwell time at MT plus ends, with importin α/β: 5.39 s
  dwell time on the MT lattice: 1.77 s
  dwell time on the MT lattice, with importin α/β: 2.3 s
  on-rate on MTs (landing events per MT length and time): 0.26 µm·s^-1
  on-rate on MTs (landing events per MT length and time), with importin α/β: 0.35 µm·s^-1

B2: YPet-Kif18B(605-828)-His6 (domain or fragment)
chain: TRTMARRLSGPLHTLGIPPGPNCTPAQGSRWPMEKKRRRPSALEADSPMAPKRGTKRQRQSFLPCLRRGSLPDTQPSQGPSTPKGERASSPCHSPRVCPATVIKSRVPLGPSAMQNCSTPLALPTRDLNATFDLSEEPPSKPSFHECIGWDKIPQELSRLDQPFIPRAPVPLFTMKGPKPTSSLPGTSACKKKRVASSSVSHGRSRIARLPSSTLKRPAGPLVL
[2]
  binding result: binds
[3]
  fold increase in the Kd for MTs with importin α/β against without: 9 fold

B3: YPet-Kif18B(605-828)-NLS1/2 (domain or fragment)
chain: TRTMARRLSGPLHTLGIPPGPNCTPAQGSRWPMEAAARRPSALEADSPMAPAAGTKRQRQSFLPCLRRGSLPDTQPSQGPSTPKGERASSPCHSPRVCPATVIKSRVPLGPSAMQNCSTPLALPTRDLNATFDLSEEPPSKPSFHECIGWDKIPQELSRLDQPFIPRAPVPLFTMKGPKPTSSLPGTSACAAAAVASSSVSHGRSRIARLPSSTLKRPAGPLVL
[2]
  binding result: binds
[3]
  fold increase in the Kd for MT binding relative to YPet-Kif18B(605-828): ~2 fold

B4: YPet-Kif18B(708-828)-His6 (domain or fragment)
chain: KSRVPLGPSAMQNCSTPLALPTRDLNATFDLSEEPPSKPSFHECIGWDKIPQELSRLDQPFIPRAPVPLFTMKGPKPTSSLPGTSACKKKRVASSSVSHGRSRIARLPSSTLKRPAGPLVL
[2]
  binding result: binds

B5: YPet-Kif18B(708-828) E2 (domain or fragment)
chain: KSRVPLGPSAMQNCSTPLALPTRDLNATFDLSEEPPSKPSFHECIGWDKIPQELSRLDQPFIPRAPVPLFTMKGPKPTSSNNGTSACKKKRVASSSVSHGRSRIARLPSSTLKRPAGPLVL
[2]
  binding result: binds

B6: YPet-Kif18B(605-707)-His6 (domain or fragment)
chain: TRTMARRLSGPLHTLGIPPGPNCTPAQGSRWPMEKKRRRPSALEADSPMAPKRGTKRQRQSFLPCLRRGSLPDTQPSQGPSTPKGERASSPCHSPRVCPATVI
[2]
  binding result: binds
